From patent US8252583B2, “Method for inducing differentiation into cardiomyocytes using G-CSF” (Keiichi Fukuda, priority 2007, dated 2012)

Key:
[1] = tested on: human ES cells; settings: human ES cells treated with 5-azacytidine; rises from 15%; cited from earlier work
[2] = tested on: cardiomyocyte markers; test: Expression of cardiomyocyte markers in ES cell-derived EBs (RT-PCR, immunostaining); format: cell-based, mouse
Text: Next, EBs at day 9 were used and analyzed for the expression of various cardiomyocyte-specific genes by RT-PCR and immunostaining. The cardiomyocyte markers used in RT-PCR were Tbx-5, MEF-2c (muscle enhancement factor-2c), Nkx2.5, GATA-4, βMHC (β myosin heavy chain), MLC-2v (myosin light chain-2v), αMHC (α-myosin heavy chain), BNP (brain natriuretic peptide), ANP (atrial natriuretic peptide) and GAPDH (glyceraldehyde-3-phosphate dehydrogenase). The cardiomyocyte markers used in immunostaining were α-actinin, actin, troponin 1-C, MF20 and ANP. […] Further, to study the optimum concentration of G-CSF, G-CSF was added at various concentrations (0.25, 0.75, 2.5, 7.5, 25, 75 ng/ml) to EBs at day 6, followed by RT-PCR to analyze the expression of each cardiomyocyte marker. It should be noted that EBs prepared at two cell densities, H ([…]) and L (5×10^4 cell/ml), were used in this test. […] To confirm a possibility that the promoting effect of G-CSF treatment to induce myocardial differentiation from ES cells would be mediated by the endogenous G-CSF signaling pathway, anti-G-CSF antibody (R&D systems) was added to medium simultaneously with G-CSF treatment and studied for its effect. EBs at day 6 were treated with G-CSF (7.5 ng/mL) in the presence of anti-G-CSF antibody at various concentrations (0, 1, 3, 9 ng/ml) to study the effect of anti-G-CSF antibody using various cardiomyocyte markers. […] To test the proliferation-promoting effect of G-CSF on ES cell-derived cardiomyocytes, EBs at day 6 were used to prepare G-CSF (7.5 ng/mL)-treated and untreated groups and a G-CSF+nocodazole (0.2 μg/mL)-treated group. […] These three groups were tested for various cardiomyocyte markers by RT-PCR.

[3] = tested on: G-CSFR expression; test: G-CSFR expression in EBs derived from ES cells treated with Noggin (RT-PCR, immunostaining); format: cell-based, mouse
Description: (§1) In the experiments described below, EB3 cells (kindly provided by Dr. Hitoshi Niwa of Riken, Japan) and R1 cells (kindly provided by Dr. Andrew Nagy of Mount Sinai Hospital, Canada) were used as ES cells. These ES cells were maintained on gelatin-coated plates in Glasgow Minimum Essential Medium (GMEM; Sigma) containing 10% fetal bovine serum, 2 mM L-glutamine, 0.1 mM nonessential amino acid solution, 1 mM sodium pyruvate, 0.1 mM 2-mercaptoethanol and 2000 U/mL leukemia inhibitory factor (LIF) (ESGRO; Chemicon).
Suspension culture was performed as follows to form EBs from ES cells. ES cells were cultured for 3 days on gelatin-coated plates in α-MEM medium containing 10% fetal bovine serum, 2 mM L-glutamine, 0.1 mM nonessential amino acid solution, 1 mM sodium pyruvate, 0.1 mM 2-mercaptoethanol, 2000 U/mL leukemia inhibitory factor and 0.15 μg/ml Noggin (Noggin-Fc, R&D). The ES cells were then dispersed into single cells by treatment with a trypsin solution, and further cultured on uncoated Petri dishes using a three-dimensional culture system in the same differentiation medium as used above (except being free from LIF) to form spheroids, from which EBs (embryoid bodies) were induced. […]

[4] = tested on: cardiomyocyte markers; test: Cardiomyocyte marker expression in CMES cells (RT-PCR, immunostaining); format: cell-based, common marmoset; settings: for expression of cardiomyocyte markers (RT-PCR, FIG. 21b): CMES cells
Description: (§2) To test the effect of G-CSF on primate cardiogenesis, common marmoset ES (CMES) cells (#20) (Sasaki et al., Stem Cells 23, 1304-1313 (2005)) were used. CMES cells were maintained on a layer of mitotically inactivated mouse embryonic fibroblasts (MEFs) in Knockout DMEM (GIBCO) medium supplemented with 20% Knockout Serum Replacement (KSR; GIBCO), 1 mM L-glutamine (GIBCO), 0.1 mM MEM nonessential amino acids (GIBCO), 0.1 mM β-mercaptoethanol (2-ME; Sigma), 10 ng/ml fibroblast growth factor (bFGF; Invitrogen) and 10 ng/ml human leukemia inhibitory factor (hLIF; Alomone labs). CMES cells were passaged every 5 days to maintain their undifferentiated state.
(§3) Undifferentiated CMES cells were removed from the MEF feeder layer, dissociated into small colonies with a dissociation solution for human and monkey ES cells (ReproCELL. JAPAN), and then cultured to form EBs in suspension culture using HydroCell culture plates (CellSeed, JAPAN) in medium free from bFGF and hLIF.

[5] = tested on: fetal hearts; test: Hematoxylin-eosin staining of fetal heart sections after G-CSF administration; format: in vivo, mouse; settings: G-CSF 100 ng/kg into uteri at 9.0 days of pregnancy; fetal hearts at 12.5 days
Description: (§4) At 9.0 days of pregnancy, mice were laparotomized and G-CSF (100 ng/kg) or PBS (phosphate-buffered physiological saline; serving as a control) was directly administered into their uteri. At 9.5 days of pregnancy, the mice were then administered with BrdU (bromodeoxyuridine) by the intraperitoneal route. BrdU is incorporated during DNA synthesis and allows proliferation assessment by immunostaining. At 12.5 days of pregnancy, fetuses were collected to prepare heart sections, which were then analyzed in the same manner as shown for immunostaining in Example 1(2).

[6] = tested on: fetal myocardial proliferation; test: In vivo effect of G-CSF on cardiogenesis: Phospho-Histon H3 immunostaining of fetal heart sections; design: species or system mouse
Description: G-CSF (2 ng) was directly administered into the uteri of pregnant mice at 9.0 days of pregnancy. At 13.5 days of pregnancy, fetuses were collected to prepare heart sections, which were then immunostained with Phospho-Histon H3. Phospho-Histon H3 is a dye that is specifically stained during the cell proliferation process.
Next, the labeling index was calculated by the following equation. Labeling index=Phospho-Histon H3 positive nuclei/total nuclei×100(%)

[7] = tested on: fetal myocardial proliferation; test: In vivo effect of G-CSF on cardiogenesis: BrdU immunostaining of fetal heart sections; design: species or system mouse
Description: as §4
Moreover, for quantification of the myocardial proliferation-promoting effect, the BrdU labeling index was calculated by the following equation. It should be noted that wild-type mice were used in this test, which were administered with BrdU at 10.5 days of pregnancy and analyzed at 12.5 days of pregnancy. BrdU labeling index=BrdU positive nuclei/total nuclei×100(%)

[8] = tested on: ES cell-derived cardiomyocytes; test: BrdU incorporation in ES cell-derived EBs (double immunostaining anti-BrdU / anti-mef2c); format: cell-based, mouse; settings: EBs at day 6, G-CSF 2.5 ng/mL, BrdU for 18 hours; vs untreated
Description: In addition, EBs at day 6 were used to prepare G-CSF (2.5 ng/mL)-treated and untreated groups, which were then incubated with BrdU for 18 hours.

[9] = tested on: common marmoset ES (CMES) cells; test: Spontaneous beating of common marmoset ES cell-derived EBs; format: cell-based; settings: G-CSF 2.5 ng/mL added at 4, 6 or 9 days after EB formation
Description: as §2, §3
At 4, 6 and 9 days after EB formation, G-CSF (2.5 ng/mL) was added to observe spontaneous beating. The best result was obtained upon addition at 6 days after EB formation, and the difference between G-CSF-treated and untreated groups became evident at 14 days after EB formation.

[10] = tested on: ES cells; test: Induction test of cardiomyocyte differentiation: autonomously beating EBs / total EBs; format: cell-based, mouse
Description: as §1
Namely, on gelatin-coated dishes, ES cells were maintained in an undifferentiated state in the presence of LIF, and suspension culture was started at day 0 in the absence of LIF to initiate differentiation of the ES cells, whereby EBs which had differentiated into cardiomyocytes were obtained at day 9. At days 5, 6, 7 and 8, G-CSF (2.5 ng/ml) was added and studied for its effect on EB formation. This effect was calculated by dividing the number of autonomously beating EBs by the total number of EBs.
Based on the above results, the optimum concentration of G-CSF was determined. The optimum concentration was studied by comparing the values calculated by dividing the number of autonomously beating EBs by the total number of EBs.

Molecule: Nc1ncn([C@@H]2O[C@H](CO)[C@@H](O)[C@H]2O)c(=O)n1 [5-azacytidine]
- percentage of troponin I-positive cells (cardiomyocytes) in EBs [1]: 44%

Molecule: COC(=O)Nc1nc2ccc(C(=O)c3cccs3)cc2[nH]1 [Nocodazole, reference compound]
- effect on G-CSF-increased expression of cardiomyocyte markers (RT-PCR, FIG. 19) ([2]; EBs at day 6, G-CSF 7.5 ng/mL + nocodazole 0.2 μg/mL): cancelled the increased expression of the cardiomyocyte markers

Molecule: Noggin
- G-CSFR expression in EBs (immunostaining, FIG. 11) ([3]; Noggin(+) group vs Noggin(−) group, EBs at 6 days after EB formation): G-CSFR expression is increased
- start of G-CSFR expression in EBs (RT-PCR, FIG. 10) ([3]; Noggin(+) group, 0.15 μg/ml Noggin for 3 days): 5 days after EB formation

B1: G-CSF: hematopoietic factor, differentiation-inducing factor for granulocyte lineage hematopoietic stem cells; agonist for G-CSF receptor (protein, listed as Homo sapiens)
chain: TPLGPASSLPQSFLLKCLEQVRKIQGDGAALQEKLCATYKLCHPEELVLLGHSLGIPWAPLSSCPSQALQLAGCLSQLHSGLFLYQGLLQALEGISPELGPTLDTLQLDVADFATTIWQQMEELGMAPALQPTQGAMPAFASAFQRRAGGVLVASHLQSFLEVSYRVLRHLAQP
- cardiac troponin I- and Nkx2.5-positive areas (immunostaining, FIG. 21c) ([4]; CMES-derived EBs, G-CSF-treated vs untreated): enhanced cardiac troponin I- and Nkx2.5-positive areas
- heart section morphology (hematoxylin-eosin, FIG. 5a) [5]: extended trabecular layer
- fetal myocardial proliferation (Phospho-Histon H3 immunostaining, FIG. 7) ([6]; G-CSF 2 ng into uteri at 9.0 days of pregnancy, fetuses collected at 13.5 days): enhance fetal myocardial proliferation
- Phospho-Histon H3 labeling index (FIG. 8) ([6]; embryonic days 8.5 to 10.5): strongly enhance myocardial proliferation
- expression of cardiomyocyte markers (RT-PCR and immunostaining, FIG. 15) ([2]; EBs at day 9, G-CSF-treated group): all the cardiomyocyte markers showed increased expression levels
- expression of contractile proteins, transcription factors and secretory proteins (RT-PCR, FIG. 16) ([2]; G-CSF 0.25 to 25 ng/ml added to EBs at day 6, cell densities H (2×10^3 cell/ml) and L (5×10^4 cell/ml), vs control group): increased expression levels
- fetal myocardial proliferation (BrdU immunostaining, FIG. 4) ([7]; G-CSF 100 ng/kg into uteri at 9.0 days of pregnancy, BrdU i.p. at 9.5 days, fetuses collected at 12.5 days, vs PBS): promoted fetal myocardial proliferation
- BrdU labeling index (FIG. 6) ([7]; wild-type mice, BrdU at 10.5 days of pregnancy, analyzed at 12.5 days): enhance myocardial proliferation
- cell proliferation of cardiomyocytes (BrdU labeling index, FIG. 20) [8]: promote cell proliferation of cardiomyocytes
- effect of G-CSF addition on cardiogenesis (spontaneous beating, FIG. 21a) [9]: highest at 6 days after EB formation
- effect on EB formation (autonomously beating EBs / total EBs, FIG. 14) ([10]; G-CSF 2.5 ng/ml added at days 5, 6, 7 or 8, result for addition at day 6): greatest effect on EB formation
- optimum timing of G-CSF administration ([10]; G-CSF 2.5 ng/ml, days 5, 6, 7 and 8 compared): 6 days
- optimum concentration of G-CSF (autonomously beating EBs / total EBs, FIG. 17) ([10]; added to EBs at day 6): 0.75 ng/mL

B2: mouse G-CSF: G-CSF of mouse origin used on CMES cells (protein, UniProt P09920 31-208, looked up)
Granulocyte …: VPLVTVSALPPSLPLPRSFLLKSLEQVRKIQASGSVLLEQLCATYKLCHPEELVLLGHSLGIPKASLSGCSSQALQQTQCLSQLHSGLCLYQGLLQALSGISPALAPTLDLLQLDVANFATTIWQQMENLGVAPTVQPTQSAMPAFTSAFQRRAGGVLAISYLQGFLETARLALHHLA
- expression of cardiomyocyte markers (RT-PCR, FIG. 21b) [4]: strongly enhance the expression of the cardiomyocyte markers

B3: human G-CSF: G-CSF of human origin used on CMES cells (protein, UniProt P09919 31-207, looked up)
Granulocyte …: TPLGPASSLPQSFLLKCLEQVRKIQGDGAALQEKLVSECATYKLCHPEELVLLGHSLGIPWAPLSSCPSQALQLAGCLSQLHSGLFLYQGLLQALEGISPELGPTLDTLQLDVADFATTIWQQMEELGMAPALQPTQGAMPAFASAFQRRAGGVLVASHLQSFLEVSYRVLRHLAQP
- expression of cardiomyocyte markers (RT-PCR, FIG. 21b) [4]: strongly enhance the expression of the cardiomyocyte markers
